Data taken from PMC4051777, “Characterization of an Alkali- and Halide-Resistant Laccase Expressed in E. coli: CotA from Bacillus clausii” (PLoS ONE, 2014).

B1: cotA from B. clausii (Shouchella clausii KSM-K16) (protein)
chain: MELEKFVDPMPIMKTAIPKKTSKDGDYYEIEMKEFSQKLHRDLNPTRLWGYDGQFPGPTIEVMRGKPARIKWMNNLPDTHFLPIDRSIHHVAHEPEVRTVVHLHGSETTPASDGYPEAWFTKDFAEVGSFFEQETYEYPNDQRAATLWYHDHAMGITRLNVYAGLSGLYIIRDPREEQLNLPKGEFDIPLLIQDRSFNDDGSLFYPAQPANPAPNLPNPSVLPFFVGDTILVNGKVWPYLQVEPRKYRFRILNGSNSRSYQLALDSEAPFYQIASDGGLLRRTVSLQAFDIRPAERIEAIIDFSKFEGQTITLKNNASTDATADVMQFQVVLPLSGEDTSIIPQNLSYIPSLQQNDVKRIRNLKISGTTDEYGRPLLLLNNKLWSDPVEEKPCLGTTEIWSFVNVTNVPHPMHIHLVQFQLLDHRAFNVELYNENGQIELVGPTIPPKINERGWKDTITAPAGQITRVIARFAPFSGYYVWHCHILEHEDYDMMRPFVVIDPKTEKERR
notes: full length, codon-optimized gene in pETM13 (p133), E. coli BL21(DE3)
B2: cotA from B. subtilis (Bacillus subtilis subsp. subtilis str. 168) (protein)
chain: MTLEKFVDALPIPDTLKPVQQSKEKTYYEVTMEECTHQLHRDLPPTRLWGYNGLFPGPTIEVKRNENVYVKWMNNLPSTHFLPIDHTIHHSDSQHEEPEVKTVVHLHGGVTPDDSDGYPEAWFSKDFEQTGPYFKREVYHYPNQQRGAILWYHDHAMALTRLNVYAGLVGAYIIHDPKEKRLKLPSDEYDVPLLITDRTINEDGSLFYPSAPENPSPSLPNPSIVPAFCGETILVNGKVWPYLEVEPRKYRFRVINASNTRTYNLSLDNGGDFIQIGSDGGLLPRSVKLNSFSLAPAERYDIIIDFTAYEGESIILANSAGCGGDVNPETDANIMQFRVTKPLAQKDESRKPKYLASYPSVQHERIQNIRTLKLAGTQDEYGRPVLLLNNKRWHDPVTETPKVGTTEIWSIINPTRGTHPIHLHLVSFRVLDRRPFDIARYQESGELSYTGPAVPPPPSEKGWKDTIQAHAGEVLRIAATFGPYSGRYVWHCHILEHEDYDMMRPMDITDPHK
notes: full length, 1542-bp PCR product from genomic DNA in pETM13 (p130), E. coli BL21(DE3); no fusions or tailing amino acids

Assays:
[1] = substrate: COc1cccc(OC)c1O; assay: purified protein; assay type: biochemical, Shouchella clausii; conditions: pH 7 (implied by context), O2 as co-substrate, DMP 0-12.5 mM, substrate inhibition at high DMP
[2] = substrate: COc1cccc(OC)c1O; assay: purified protein; assay type: biochemical, Bacillus subtilis; conditions: pH 7, O2 as co-substrate, DMP 0-12.5 mM, substrate inhibition at high DMP

Row | Protein | Km [1] [µM] | Km [2] [µM]
1 | B1 | 1020 | –
2 | B2 | – | 340
